Tests used:
[1] = molecular target: Keratin 17 in HeLa cells (human) (UniProt Q04695); test: microfluidic cytometry (Moxi Go), methanol-fixed HeLa cells, E3 primary antibody, PE anti-mouse secondary
[2] = molecular target: Keratin 17 recombinant protein (human) (UniProt Q04695); test: sandwich ELISA: E3 capture, 2D10-HRP detection, recombinant K17 calibrators
[3] = molecular target: Keratin 17 recombinant protein (human) (UniProt Q04695); test: sandwich ELISA: E3 coated 2 ug/mL, recombinant K17 calibrator 4.1 ng/mL, detection 2D10-HRP 1 ug/mL
[4] = molecular target: Keratin 17 recombinant protein (human) (UniProt Q04695); test: sandwich ELISA: E3 coated 2 ug/mL, recombinant K17 calibrator 1.4 ng/mL, detection 2D10-HRP 1 ug/mL
[5] = molecular target: Keratin 17 recombinant protein (human) (UniProt Q04695); test: sandwich ELISA: E3 coated 2 ug/mL, recombinant K17 calibrator 12.3 ng/mL, detection 2D10-HRP 1 ug/mL
[6] = molecular target: Keratin 17 recombinant protein (human) (UniProt Q04695); test: sandwich ELISA: E3 coated 2 ug/mL, recombinant K17 calibrator 37.0 ng/mL, detection 2D10-HRP 1 ug/mL
[7] = molecular target: Keratin 17 recombinant protein (human) (UniProt Q04695); test: sandwich ELISA: E3 coated 2 ug/mL, recombinant K17 calibrator 1000 ng/mL, detection 2D10-HRP 1 ug/mL
[8] = molecular target: Keratin 17 recombinant protein (human) (UniProt Q04695); test: sandwich ELISA: E3 coated 2 ug/mL, recombinant K17 calibrator 333.3 ng/mL, detection 2D10-HRP 1 ug/mL
[9] = molecular target: Keratin 17 recombinant protein (human) (UniProt Q04695); test: sandwich ELISA: E3 coated 2 ug/mL, recombinant K17 calibrator 111.1 ng/mL, detection 2D10-HRP 1 ug/mL

- % K17-positive cells [1]: 90.4%
- limit of sensitivity [2]: 1 ng/mL
- OD Avg. (450 nm) [3]: 0.141 OD
- OD-1 (450 nm) [3]: 0.142 OD
- OD-2 (450 nm) [3]: 0.14 OD
- OD Avg. (450 nm) [4]: 0.084 OD
- OD-1 (450 nm) [4]: 0.087 OD
- OD-2 (450 nm) [4]: 0.081 OD
- OD Avg. (450 nm) [5]: 0.321 OD
- OD-1 (450 nm) [5]: 0.323 OD
- OD-2 (450 nm) [5]: 0.318 OD
- OD Avg. (450 nm) [6]: 0.838 OD
- OD-1 (450 nm) [6]: 0.844 OD
- OD-2 (450 nm) [6]: 0.832 OD
- OD Avg. (450 nm) [7]: 3.59 OD
- OD-1 (450 nm) [7]: 3.56 OD
- OD-2 (450 nm) [7]: 3.62 OD
- OD Avg. (450 nm) [8]: 3.59 OD
- OD-1 (450 nm) [8]: 3.58 OD
- OD-2 (450 nm) [8]: 3.6 OD
- OD Avg. (450 nm) [9]: 2.38 OD
- OD-1 (450 nm) [9]: 2.47 OD
- OD-2 (450 nm) [9]: 2.29 OD
Substance: mouse monoclonal-[E3] anti-human K17 antibody

Source: patent US20200284794A1
